In publication PMC8951541, “Sunflower WRINKLED1 Plays a Key Role in Transcriptional Regulation of Oil Biosynthesis”:

Legend:
[1] = target: T1, His-HaWRI1(52-234), AP2 domain (Helianthus annuus, UniProt A0A251SM13 52-234); assay: competition; 10x to 60x unlabeled probe against biotin-labeled N1 (EMSA); EMSA: 15 mM HEPES-KOH pH 7.5, 7.5 mM KCl, 0.5 mM EDTA, 5% glycerol, 2 mM DTT, 1 ug/uL BSA, 0.05 ug/uL poly(dI-dC), 20 uL, on ice 30 min; 5% native PAGE; conditions: protein: recombinant; tags: 6xHis (pET41a-6xHis vector); label: none
[2] = target: T1, His-HaWRI1(52-234), AP2 domain; assay: EMSA; poly(dI-dC) 0.05 ug/uL; 280 ng protein; 2 fmol/uL probe; EMSA: 15 mM HEPES-KOH pH 7.5, 7.5 mM KCl, 0.5 mM EDTA, 5% glycerol, 2 mM DTT, 1 ug/uL BSA, 0.05 ug/uL poly(dI-dC), 20 uL, on ice 30 min; 5% native PAGE; conditions: protein: recombinant; tags: 6xHis (pET41a-6xHis vector); label: 5' biotin

T1 sequence (A0A251SM13 entry or part of it): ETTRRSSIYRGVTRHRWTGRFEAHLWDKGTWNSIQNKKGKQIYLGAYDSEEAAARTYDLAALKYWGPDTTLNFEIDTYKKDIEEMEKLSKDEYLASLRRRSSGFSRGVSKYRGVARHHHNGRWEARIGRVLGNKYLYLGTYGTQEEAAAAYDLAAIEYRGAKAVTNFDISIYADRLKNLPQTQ

B1: proBCCP2 AW-box cold probe (dsDNA)
DNA 1: TACTTCCTCGGTTTCATCGTCCAC
DNA 2: GTGGACGATGAAACCGAGGAAGTA
B1: binds [1].

B2: proBCCP2 AW-box probe (dsDNA)
DNA 1: TACTTCCTCGGTTTCATCGTCCAC
DNA 2: GTGGACGATGAAACCGAGGAAGTA
B2: binds [2].
